Assay results as given in article PMC3426162 (Archaea, 2012).
Values belong to the molecule of their own block, whether it stands above or below them.

Tests used:
[1] = target: T1, AMP-dependent ACS (Mthe_1194) (Methanothrix thermoacetophila, UniProt A0B8F1); assay: discontinuous pyrophosphate detection (molybdate / Eikonogen, […] nm); format: biochemical; settings: co-substrates ATP and CoA; 55°C
T1 construct: gene acsA; full-length gene in pASK-IBA5, N-terminal Strep-tag II, E. coli BL21 (DE3) pLysS; approximately 75 kDa on SDS gel
T1 sequence (A0B8F1 1-659): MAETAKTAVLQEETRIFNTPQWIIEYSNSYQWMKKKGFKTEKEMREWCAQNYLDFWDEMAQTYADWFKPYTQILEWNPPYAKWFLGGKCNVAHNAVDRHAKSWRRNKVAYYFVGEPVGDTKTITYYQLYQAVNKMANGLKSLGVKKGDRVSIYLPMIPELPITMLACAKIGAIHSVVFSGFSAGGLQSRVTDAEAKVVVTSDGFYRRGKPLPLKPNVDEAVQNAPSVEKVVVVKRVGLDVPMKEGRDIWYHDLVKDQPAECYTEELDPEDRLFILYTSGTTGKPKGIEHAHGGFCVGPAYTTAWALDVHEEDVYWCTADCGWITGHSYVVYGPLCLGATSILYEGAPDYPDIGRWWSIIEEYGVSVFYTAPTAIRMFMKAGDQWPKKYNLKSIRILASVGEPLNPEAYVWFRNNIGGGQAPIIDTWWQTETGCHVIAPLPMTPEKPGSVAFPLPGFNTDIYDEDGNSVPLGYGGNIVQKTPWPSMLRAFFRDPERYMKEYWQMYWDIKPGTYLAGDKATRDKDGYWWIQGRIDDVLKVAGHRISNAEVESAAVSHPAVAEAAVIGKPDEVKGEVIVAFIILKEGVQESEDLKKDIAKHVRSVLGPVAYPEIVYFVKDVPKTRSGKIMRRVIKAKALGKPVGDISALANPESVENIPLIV

[2] = target: T1, AMP-dependent ACS (Mthe_1194); assay: coupled assay via auxiliary enzymes (myokinase, pyruvate kinase, lactate dehydrogenase), NADH […] nm; format: biochemical; settings: read-out: 50% reduction of the reaction rate
purified protein [3] = substrate: CC(C)(COP(=O)(O)OP(=O)(O)OC[C@H]1O[C@@H](n2cnc3c(N)ncnc32)[C@H](O)[C@@H]1OP(=O)(O)O)[C@@H](O)C(=O)NCCC(=O)NCCS; assay: purified protein; format: biochemical, Methanothrix thermoacetophila; settings: co-substrates acetate and ATP, 55°C
purified protein [4] = substrate: Nc1ncnc2c1ncn2[C@@H]1O[C@H](COP(=O)(O)OP(=O)(O)OP(=O)(O)O)[C@@H](O)[C@H]1O; assay: purified protein; format: biochemical, Methanothrix thermoacetophila; settings: co-substrates acetate and CoA, 55°C
purified protein [5] = substrate: CC(=O)O; assay: purified protein; settings: 50 mM HEPES pH 7.5, 5 mM MgCl2, 1 mM CoA, 2.5 mM ATP, 55°C

Molecule: CCC(=O)O [propionate]
discontinuous pyrophosphate detection (molybdate / Eikonogen, 580 nm) [1]: A reaction was also observed with propionate

IC50 [2]: ~250 µM
Molecule: O=P(O)(O)OP(=O)(O)O [PPi]

B1: AMP-dependent ACS (Mthe_1194) (Methanothrix thermoacetophila PT) (protein)
chain: T1 sequence (A0B8F1 1-659)
notes: full-length gene in pASK-IBA5, N-terminal Strep-tag II, E. coli BL21 (DE3) pLysS; approximately 75 kDa on SDS gel
Km (purified protein [3]): 14.5 µM
Km (purified protein [4]): 20 µM
Km (purified protein [5]): 400 µM
